Target: purified recombinant human insulin receptor (either with or without exon 11) (human) (UniProt P06213)
Experiment: SPA competition with A14Tyr[125I]-human insulin on purified recombinant human insulin receptor

Substance	Relative insulin receptor binding affinity (%) (% of the affinity of human insulin)
A14E, B27K, desB28, desB29, desB30 human insulin (from UniProt P01308 90-110; P01308 25-51) (ligand)	79
A14E, B25H, B29R, desB30 human insulin (from UniProt P01308 90-110; P01308 25-53) (ligand)	26.1
A14E, B25H, B26G, B27G, B28K, desB30 human insulin (from UniProt P01308 90-110; P01308 25-53) (ligand)	69.5
A8H, A14E, B16H, B25H, desB30 human insulin (from UniProt P01308 90-110; P01308 25-53) (ligand)	24
A8H, A14E, A22K, B25H, B29R, desB30 human insulin (from UniProt P01308 90-110; P01308 25-53) (ligand)	67.1
A14E, B16E, B22K, B25H, B29R, desB30 human insulin (from UniProt P01308 90-110; P01308 25-53) (ligand)	0.59
A14E, B25H, B26G, B27E, B28G, desB30 human insulin (from UniProt P01308 90-110; P01308 25-53) (ligand)	22.7
A14E, B25H, B27G, B28G, desB30 human insulin (from UniProt P01308 90-110; P01308 25-53) (ligand)	16.5
A14E, A21G, B25H, desB30 human insulin (from UniProt P01308 90-110; P01308 25-53) (ligand)	13.1
A8H, A14E, B10E, B25H, B26G, B27G,B28G, desB30 human insulin (from UniProt P01308 90-110; P01308 25-53) (ligand)	136
A14E, A22K, B25H, B27E, B29R, desB30 human insulin (from UniProt P01308 90-110; P01308 25-53) (ligand)	24.6
A14H, B16H, B25H, desB27, desB28, desB29, desB30 Human insulin (from UniProt P01308 90-110; P01308 25-50) (ligand)	2
A14E, A22K, B16H, B25H, B29R, desB30 human insulin (from UniProt P01308 90-110; P01308 25-53) (ligand)	7.61
A14E, A22K, B25H, B26G, B27G, B28G, B29R, desB30 human insulin (from UniProt P01308 90-110; P01308 25-53) (ligand)	59.2
A8H, A14H, B16H, B25H, desB30 human insulin (from UniProt P01308 90-110; P01308 25-53) (ligand)	27
A14E, A22K, B16E, B25H, B29R, desB30 human insulin (from UniProt P01308 90-110; P01308 25-53) (ligand)	0.9
A14E, B10E, B25H, B26G, B27G, B28G, desB30 human insulin (from UniProt P01308 90-110; P01308 25-53) (ligand)	144
A14E, A15E, B25H, desB30 human insulin (from UniProt P01308 90-110; P01308 25-53) (ligand)	23
A14E, B16H, B22K, B25H, B29R, desB30 human insulin (from UniProt P01308 90-110; P01308 25-53) (ligand)	4.61
A14E, B25H, B28G, desB30 human insulin (from UniProt P01308 90-110; P01308 25-53) (ligand)	18.4
A14E, B22K, B25H, B26G, B27G, B28G, B29R, desB30 human insulin (from UniProt P01308 90-110; P01308 25-53) (ligand)	60.7
A14E, B25H, B26E, B27E, desB30 human insulin (from UniProt P01308 90-110; P01308 25-53) (ligand)	16.5
A8H, A14E, B22K, B25H, B29R, desB30 human insulin (from UniProt P01308 90-110; P01308 25-53) (ligand)	81.1
A14E, B16H, B25H, desB27, desB28, desB29, desB30 human insulin (from UniProt P01308 90-110; P01308 25-50) (ligand)	1.9
A14K, B25H, B29R human insulin (from UniProt P01308 90-110; P01308 25-54) (ligand)	11
A14P, B25H, desB30 human insulin (from UniProt P01308 90-110; P01308 25-53) (ligand)	14

— patent US20110092419A1
